Laboratory results from article PMC5915351.

B1: BmbD (YcaO protein, thiazoline-forming), maltose-binding protein fusion (enzyme)
chain: MREATATECELREVVHRSYPSERTVTVRCTVRPAEGSAQADGYGTATTEAVARAKALSEAVERLVACTPFATVARPPTACADPGTGSGPVPPFPAAGVRTAPEGCAGRVYRPLTGGGPRRVPLYWSSPWTAGAELRAGTLTAAEARLSSTVGWAVAPTPEGALRGALLELTELIDYGVFLHRRLAGPARRPSAGDRTLVVPLGGIGRTPAVLAVAYGRGRLMPATGLGCGATRGEATDRALLELAQAETMWRSNPTAEPAERFFLRRFERWPLLARCATLDFDLPDPRDPPARSGPAGGPGPYDDGPCPASPLEELEAGGIRVWADSGAVDISGPDIPRTRLCFAHVVSDPQPLLGLVRAGIPVFDTGEVRRTLDPSRRPADRPADRGGHRDRSADRGPARRGHEGRRSA
B2: BmbE (YcaO protein, macrolactamidine-forming), maltose-binding protein fusion (enzyme)
chain: MTRPADPQTAPQTEAATETDPLTAVLLDGATKEDVPPERETDIRQALASVGDWLAAEGLTADIRKYGIESAPTYEVRLSEASGALCSRSSGKGLGHRSMASALFESAEHYHLDWRRDPRASEAEFRPGREIAEQATARRSALLGRLGQIMPDAPVLTRTYRPVEEALTGRAGDGEADGPHRHPVFLRDGGYRNWPHPDDDRSFQPLWHYTSSAGYAAGATRHEALVHAVNELIERDAWSYQLARSYFGLPGEGPELRVVEHGTLPAELRELTRTVEEVRGAPVLIVDITCDTGVPAYVVCDARSREDVRLIGSGASPVRTYAVQRALLEYLQVRTMFENGPVDADTEAGQIGTALARYPRHLAAARFDIHRLPHESTAFEADDGLPAATGPERLLRHLVDRLRESGVEAHHRVLTPPGPVTVVDVVAPGLEMFDKARAGYPVLPTGRLGERLRPRGDGGGARR

Target: BmbC-C8S/S43C, fluorescein-labelled (bottromycin precursor peptide double variant) (Streptomyces bottropensis)
Assay: fluorescence polarisation

| Molecule | Kd [nM] |
| --- | --- |
| RRE domain excised from BmbF (radical-SAM methyltransferase) (domain or fragment) | 597 |
| RRE domain excised from BmbB (radical-SAM methyltransferase) (domain or fragment) | 876 |
| B1 | > 50000 |
| B2 | > 50000 |
